According to article PMC4383598, “Role of Cysteine Residues in the Structure, Stability, and Alkane Producing Activity of Cyanobacterial Aldehyde Deformylating Oxygenase” (PLoS ONE, 2015):
Where a chain is given by its changes, count along the chain named. In names and notes the source's numbering stands.

B1: Aldehyde deformylating oxygenase from Nostoc punctiforme PCC 73102, C71S mutant (enzyme, UniProt B2J1M1 1-232, looked up)
chain: MQQLTDQSKELDFKSETYKDAYSRINAIVIEGEQEAHENYITLAQLLPESHDELIRLSKMESRHKKGFEASGRNLAVTPDLQFAKEFFSGLHQNFQTAAAEGKVVTCLLIQSLIIECFAIAAYNIYIPVADDFARKITEGVVKEEYSHLNFGEVWLKEHFAESKAELELANRQNLPIVWKMLNQVEGDAHTMAMEKDALVEDFMIQYGEALSNIGFSTRDIMRLSAYGLIGA
notes: Aldehyde deformylating oxygenase of Nostoc punctiforme PCC 73102; codon-optimised synthetic gene; Same construct as m1 with the mutation; source: E. coli BL21(DE3)pLysS (pET-15b-AD variant), purified (Ni-agarose, dialysis)
B2: Aldehyde deformylating oxygenase from Nostoc punctiforme PCC 73102, C71A mutant (enzyme, UniProt B2J1M1 1-232, looked up)
chain: B1 chain with S71A
notes: as for B1

Biological target: the molecule itself
Test: SEC; Superdex 200pg (124 mL), 500 uL of protein at 2.5 mg/mL, 0.5 mL/min, 10 mM sodium phosphate pH 7.2, 150 mM NaCl; fraction of dimer against monomer

| Protein | stoichiometry N |
| --- | --- |
| B1 | 2 |
| B2 | 2 |
